Data on 1 substance can be found in publication PMC7959541.

In experiment [1] the target is Cy5 labeled PDZ14 (engineered yeast SmF variant with a PDZ domain at its C-terminus, 14-mer) (Saccharomyces cerevisiae). The experiment can be described thus: dual-color fluorescence cross-correlation spectroscopy.
Experiment [2] shares this target. The experiment can be described thus: fluorescence burst analysis of two-colour confocal trajectories.

Turning to “Alexa 488 labeled KKETPV14 (engineered yeast SmF variant with the short peptide KKETPV at its C-terminus, 14-mer)”, the results for the stoichiometry N (KKETPV14:PDZ14) in experiment [1] and in experiment [2] were 1 and 0.99, respectively.
